These results are taken from patent US20030215451A1 (Genentech, published 2003).

The target of one assay is integrin αvβ3 (UniProt P06756 31-1048; P05106 27-788). Put plainly: cell-based or functional assay.
The target in assay [1] is T1, Tie1 receptor (full length receptor construct) (UniProt P35590 22-1138, limits assumed).
T1 construct: whole, on cells; Full length receptor expressed in 293 cells and assayed from RIPA lysate, not on intact cells
Put plainly: co-immunoprecipitation from co-transfected 293 cells: anti-Tie1 IP, anti-gD immunoblot.

The target in assay [2] is T2, Tie2 receptor (full length receptor construct) (UniProt Q02763 23-1124, limits assumed).
T2 construct: whole, on cells; Full length receptor expressed in 293 cells and assayed from RIPA lysate, not on intact cells
T2 sequence (Q02763 23-1124 limits assumed): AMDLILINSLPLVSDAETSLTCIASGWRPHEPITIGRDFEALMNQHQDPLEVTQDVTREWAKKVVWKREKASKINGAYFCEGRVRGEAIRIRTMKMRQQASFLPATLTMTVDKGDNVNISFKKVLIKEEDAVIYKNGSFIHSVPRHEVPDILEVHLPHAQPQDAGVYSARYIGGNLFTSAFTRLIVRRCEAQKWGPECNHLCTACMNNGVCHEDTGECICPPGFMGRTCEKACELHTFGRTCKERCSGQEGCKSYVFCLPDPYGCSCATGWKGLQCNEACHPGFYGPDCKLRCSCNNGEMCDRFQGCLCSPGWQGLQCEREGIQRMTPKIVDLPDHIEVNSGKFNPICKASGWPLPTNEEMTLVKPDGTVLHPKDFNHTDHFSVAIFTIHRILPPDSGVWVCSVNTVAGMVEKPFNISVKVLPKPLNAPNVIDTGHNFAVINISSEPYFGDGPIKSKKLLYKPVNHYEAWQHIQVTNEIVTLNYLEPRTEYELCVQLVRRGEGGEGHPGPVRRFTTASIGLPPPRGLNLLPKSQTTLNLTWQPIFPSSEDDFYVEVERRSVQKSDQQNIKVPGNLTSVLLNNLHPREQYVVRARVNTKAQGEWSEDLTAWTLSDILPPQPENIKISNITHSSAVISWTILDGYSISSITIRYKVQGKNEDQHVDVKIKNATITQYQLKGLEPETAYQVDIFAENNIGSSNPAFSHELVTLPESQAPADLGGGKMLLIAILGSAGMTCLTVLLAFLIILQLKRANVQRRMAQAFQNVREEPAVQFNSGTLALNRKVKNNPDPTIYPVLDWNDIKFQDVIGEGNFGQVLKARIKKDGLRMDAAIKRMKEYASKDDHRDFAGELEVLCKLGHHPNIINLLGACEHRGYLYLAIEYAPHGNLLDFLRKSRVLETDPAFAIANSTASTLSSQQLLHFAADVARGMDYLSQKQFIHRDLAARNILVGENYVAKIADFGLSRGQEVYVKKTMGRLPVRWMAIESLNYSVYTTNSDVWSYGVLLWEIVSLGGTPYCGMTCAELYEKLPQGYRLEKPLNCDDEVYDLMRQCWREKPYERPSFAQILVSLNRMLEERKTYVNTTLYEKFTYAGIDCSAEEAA
In words: co-immunoprecipitation from co-transfected 293 cells: anti-Tie2 IP, anti-gD immunoblot.

integrin αvβ3, sequence (P06756 31-1048, chain 1 of 2): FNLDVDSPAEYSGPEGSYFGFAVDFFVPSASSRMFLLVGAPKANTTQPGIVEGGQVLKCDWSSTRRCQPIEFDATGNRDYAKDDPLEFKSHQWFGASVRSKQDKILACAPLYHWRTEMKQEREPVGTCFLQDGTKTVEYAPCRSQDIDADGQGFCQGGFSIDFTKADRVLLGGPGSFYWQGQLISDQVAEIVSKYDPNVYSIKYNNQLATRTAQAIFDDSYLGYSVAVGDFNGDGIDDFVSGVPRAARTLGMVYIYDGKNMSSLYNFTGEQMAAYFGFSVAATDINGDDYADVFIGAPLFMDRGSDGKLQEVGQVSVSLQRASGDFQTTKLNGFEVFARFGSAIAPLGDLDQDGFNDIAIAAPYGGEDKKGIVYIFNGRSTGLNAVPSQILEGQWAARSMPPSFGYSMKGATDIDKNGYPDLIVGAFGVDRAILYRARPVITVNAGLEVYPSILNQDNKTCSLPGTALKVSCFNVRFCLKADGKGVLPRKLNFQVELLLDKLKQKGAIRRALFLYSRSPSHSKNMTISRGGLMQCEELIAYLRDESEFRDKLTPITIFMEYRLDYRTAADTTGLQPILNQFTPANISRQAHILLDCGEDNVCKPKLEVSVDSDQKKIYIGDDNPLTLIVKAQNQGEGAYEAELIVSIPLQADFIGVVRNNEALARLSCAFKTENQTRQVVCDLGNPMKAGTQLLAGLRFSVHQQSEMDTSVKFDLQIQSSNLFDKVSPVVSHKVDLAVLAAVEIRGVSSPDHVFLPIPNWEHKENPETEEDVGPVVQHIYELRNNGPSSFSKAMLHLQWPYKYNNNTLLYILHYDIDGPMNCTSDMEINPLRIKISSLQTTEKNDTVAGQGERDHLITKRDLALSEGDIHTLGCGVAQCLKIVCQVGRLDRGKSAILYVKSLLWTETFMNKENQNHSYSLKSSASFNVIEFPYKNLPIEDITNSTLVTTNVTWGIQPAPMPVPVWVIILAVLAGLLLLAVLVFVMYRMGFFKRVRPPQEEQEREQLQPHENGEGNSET
integrin αvβ3, sequence (P05106 27-788, chain 2 of 2): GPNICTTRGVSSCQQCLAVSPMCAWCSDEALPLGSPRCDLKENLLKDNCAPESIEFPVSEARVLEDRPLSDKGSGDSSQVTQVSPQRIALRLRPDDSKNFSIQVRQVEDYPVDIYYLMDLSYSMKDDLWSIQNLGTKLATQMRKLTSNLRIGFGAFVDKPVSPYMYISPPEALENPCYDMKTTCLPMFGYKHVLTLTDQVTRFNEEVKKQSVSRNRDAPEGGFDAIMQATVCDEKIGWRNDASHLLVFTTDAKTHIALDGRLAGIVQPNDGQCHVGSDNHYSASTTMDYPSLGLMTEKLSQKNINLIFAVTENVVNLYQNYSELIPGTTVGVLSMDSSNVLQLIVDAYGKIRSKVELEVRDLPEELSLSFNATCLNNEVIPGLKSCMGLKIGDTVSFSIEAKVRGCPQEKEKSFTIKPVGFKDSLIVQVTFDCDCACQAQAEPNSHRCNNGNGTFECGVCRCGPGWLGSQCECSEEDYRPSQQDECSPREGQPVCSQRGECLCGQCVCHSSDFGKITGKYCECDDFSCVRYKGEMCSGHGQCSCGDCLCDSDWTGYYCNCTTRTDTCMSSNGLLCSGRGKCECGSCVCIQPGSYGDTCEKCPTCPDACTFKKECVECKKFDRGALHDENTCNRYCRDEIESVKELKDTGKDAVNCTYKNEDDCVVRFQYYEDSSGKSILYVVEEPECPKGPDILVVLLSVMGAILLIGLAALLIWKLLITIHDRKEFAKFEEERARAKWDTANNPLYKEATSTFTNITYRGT
T1 sequence (P35590 22-1138 limits assumed): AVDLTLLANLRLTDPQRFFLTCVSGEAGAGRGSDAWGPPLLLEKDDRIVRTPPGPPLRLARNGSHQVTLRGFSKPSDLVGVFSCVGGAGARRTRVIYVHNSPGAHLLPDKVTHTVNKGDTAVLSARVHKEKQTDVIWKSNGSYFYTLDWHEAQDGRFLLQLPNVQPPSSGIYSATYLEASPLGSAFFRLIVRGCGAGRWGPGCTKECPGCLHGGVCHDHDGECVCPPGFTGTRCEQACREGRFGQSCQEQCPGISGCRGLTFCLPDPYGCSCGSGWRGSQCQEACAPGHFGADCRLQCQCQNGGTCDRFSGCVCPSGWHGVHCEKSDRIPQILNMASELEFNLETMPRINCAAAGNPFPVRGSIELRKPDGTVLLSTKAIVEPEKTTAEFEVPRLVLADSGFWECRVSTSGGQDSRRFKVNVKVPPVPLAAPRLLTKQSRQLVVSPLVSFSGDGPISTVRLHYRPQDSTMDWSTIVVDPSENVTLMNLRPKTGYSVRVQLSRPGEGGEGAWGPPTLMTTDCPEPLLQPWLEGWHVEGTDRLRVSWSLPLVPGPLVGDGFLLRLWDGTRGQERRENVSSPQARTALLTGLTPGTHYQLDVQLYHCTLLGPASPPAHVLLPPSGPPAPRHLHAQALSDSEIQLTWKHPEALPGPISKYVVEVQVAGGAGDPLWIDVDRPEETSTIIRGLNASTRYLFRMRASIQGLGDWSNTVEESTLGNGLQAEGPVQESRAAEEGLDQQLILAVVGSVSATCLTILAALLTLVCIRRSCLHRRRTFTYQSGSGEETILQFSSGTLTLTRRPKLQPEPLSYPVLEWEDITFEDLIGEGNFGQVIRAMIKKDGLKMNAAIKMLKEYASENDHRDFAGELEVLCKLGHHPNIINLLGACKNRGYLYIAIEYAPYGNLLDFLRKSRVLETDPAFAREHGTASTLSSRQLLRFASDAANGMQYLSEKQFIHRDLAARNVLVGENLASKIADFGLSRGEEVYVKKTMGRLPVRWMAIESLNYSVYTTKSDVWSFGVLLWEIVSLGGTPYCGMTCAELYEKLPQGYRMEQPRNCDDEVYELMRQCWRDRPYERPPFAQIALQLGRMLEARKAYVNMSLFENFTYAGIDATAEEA

B1: recombinant human Angptl3 tagged with an amino-terminal gD epitope (ligand, not shown: small tags and cut ends)
chain: SRIDQDNSSFDSLSPEPKSRFAMLDDVKILANGLLQLGHGLKDFVHKTKGQINDIFQKLNIFDQSFYDLSLQTSEIKEEEKELRRTTYKLQVKNEEVKNMSLELNSKLESLLEEKILLQQKVKYLEEQLTNLIQNQPETPEHPEVTSLKTFVEKQDNSIKDLLQTVEDQYKQLNQQHSQIKEIENQLRRTSIQEPTEISLSSKPRAPRTTPFLQLNEIRNVKHDGIPAECTTIYNRGEHTSGMYAIRPSNSQVFHVYCDVISGSPWTLIQHRIDGSQNFNETWENYKYGFGRLDGEFWLGLEKIYSIVKQSNYVLRIELEDWKDNKHYIEYSFYLGNHETNYTLHLVAITGNVPNAIPENKDLVFSTWDHKAKGHFNCPEGYSGGWWWHDECGENNLNGKYNKPRAKSKPERRRGLSWKSQNGRLYSIKSTKMLIHPTDSESFE
modifications: glycosylated (PNGase-F sensitive)
notes: Purified from baculovirus-infected insect cells for the adhesion and migration assays; Expressed in transiently transfected 293 cells for the co-immunoprecipitation; Both are treated here as one molecule; also called hAngptl3; gD-tagged Angptl3
With B1, in the assay with integrin αvβ3, the “migration of HMVEC (cells/microscopic field)” value came to 2.5 fold. The binding result in assay [1] and in assay [2] was “no binding” throughout.
